The text below walks through data of patent publication US20250049970A1, “DLL3 TARGETING PEPTIDES AND CONSTRUCTS THEREOF” (MARIANA ONCOLOGY INC., priority 2023, published 2025).

*1 amine or outer side, *2 acyl side, *3 side chain or, on linkers, in order; H or OH if unused. Where a SMILES comes first, the peptide text is derived from it. Bridges are numbered along the chain shown (N, C = ends). [ ]: non-standard residue; d: D form. The star is where a group is joined. Ala(piperidin-4-yl) = O=C([C@H](CC1CCN([*:3])CC1)N[*:1])[*:2]; DOTA = O=C(O)CN1CCN(CC(=O)O)CCN(CC(=O)*)CCN(CC(=O)O)CC1; 2Nal = N[C@@H](Cc1ccc2ccccc2c1)C(=O)O; NMetBuAla = CN[C@@H](CC(C)(C)C)C(=O)O; aIle = CC[C@@H](C)[C@H](N)C(=O)O; Cha = N[C@@H](CC1CCCCC1)C(=O)O; αMeP = C[C@@]1(C(=O)O)CCCN1

As a reminder, the Kd is the free concentration of one partner at which half of the binding sites on the other are occupied at equilibrium, for simple one-to-one binding. A low value points to tighter binding. In general, EC50 refers to the concentration needed to bring the measured effect to its halfway point.

The target in one assay is T1, DLL3 (Homo sapiens, UniProt Q9NYJ7).
T1 sequence (Q9NYJ7 27-618): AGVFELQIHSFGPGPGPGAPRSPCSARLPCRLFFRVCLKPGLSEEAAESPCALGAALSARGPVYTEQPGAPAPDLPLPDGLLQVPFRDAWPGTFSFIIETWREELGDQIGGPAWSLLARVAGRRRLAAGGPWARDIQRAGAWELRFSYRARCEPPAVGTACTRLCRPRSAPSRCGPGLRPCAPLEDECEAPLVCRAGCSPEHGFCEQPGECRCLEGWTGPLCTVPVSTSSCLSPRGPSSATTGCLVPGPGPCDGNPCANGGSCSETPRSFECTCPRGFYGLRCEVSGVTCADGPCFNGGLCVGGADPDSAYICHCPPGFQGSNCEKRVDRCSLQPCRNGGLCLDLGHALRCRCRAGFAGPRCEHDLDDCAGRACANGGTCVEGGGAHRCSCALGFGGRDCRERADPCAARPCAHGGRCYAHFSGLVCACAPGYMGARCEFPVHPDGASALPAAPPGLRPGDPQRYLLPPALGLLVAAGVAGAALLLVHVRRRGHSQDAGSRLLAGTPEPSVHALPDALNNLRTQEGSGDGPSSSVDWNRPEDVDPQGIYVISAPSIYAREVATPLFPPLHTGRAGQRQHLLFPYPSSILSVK
Briefly: SPR binding affinity of cyclic peptides (SEQ ID NOs), SA sensor chip, Biacore S200. The following applies: 25° C., 1:1 binding model. The protocol: The binding affinity and binding kinetic parameters at 25° C. were determined using Biacore S200 instrument. Target ligand was immobilized on a SA sensor chip via streptavidin capture. A reference surface was set up for nonspecific binding and refractive index changes. For analysis of the kinetics of interactions, varying concentrations of peptides were injected at a flow rate of 50 μL/minute using running buffer containing 20 mM phosphate buffer with 2.7 mM KCl, 137 mM NaCl and 0.05% Surfactant P20. Sensorgram curves were fitted with 1:1 binding model, and affinity and kinetic parameters were obtained using either Biacore S200 evaluation software 1.1.1 or Biacore Insight evaluation 4.0.
A general note: SPR reads the build-up and loss of mass on a sensor chip optically.

The target of assay [1] is T2, DLL3 on SHP-77 cells (human, UniProt Q9NYJ7 27-618).
T2 construct: SHP-77 cells are human-derived, non-engineered SCLC cells
T2 sequence: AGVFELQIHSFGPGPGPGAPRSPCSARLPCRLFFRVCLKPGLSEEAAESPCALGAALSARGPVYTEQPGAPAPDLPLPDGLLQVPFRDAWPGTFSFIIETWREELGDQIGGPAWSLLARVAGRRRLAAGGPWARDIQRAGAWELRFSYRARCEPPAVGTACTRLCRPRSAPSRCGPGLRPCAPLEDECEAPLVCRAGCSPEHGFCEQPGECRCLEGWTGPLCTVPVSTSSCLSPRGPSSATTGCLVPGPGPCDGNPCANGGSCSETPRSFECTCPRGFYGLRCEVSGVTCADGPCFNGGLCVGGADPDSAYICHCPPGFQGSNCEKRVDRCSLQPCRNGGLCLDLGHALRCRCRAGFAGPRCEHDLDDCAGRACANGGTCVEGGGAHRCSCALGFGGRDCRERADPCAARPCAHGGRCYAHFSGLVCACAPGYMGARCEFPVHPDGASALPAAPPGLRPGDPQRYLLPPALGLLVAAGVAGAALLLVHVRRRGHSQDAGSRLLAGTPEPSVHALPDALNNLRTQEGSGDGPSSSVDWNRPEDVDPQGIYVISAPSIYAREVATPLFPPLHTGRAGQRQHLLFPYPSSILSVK
Briefly: [177Lu]Lu-labelled peptide on SHP-77 cells, 1 h 37 C, gamma counter; A = %<=25. As to the method: (§1) Adherent cell studies: The cells were cultured in appropriate culture media (20 mL) in tissue culture treated T150 flasks at 37° C. and 5% C02. Adherent cells were detached (60-70% confluent) using 5 mL Versene at 37° C. for 3 minutes. After confirming the viability using countess and count of detached cells using Trypan blue, the cells were centrifuged at 4° C. for 5 minutes (1,000 rpm). The cell pellet obtained was washed once with PBS and resuspended in 1% PBSA to obtain the desired cell concentration (5-25 million cells/mL).
(§2) Total uptake: Cells were incubated with 300 μL (0.8 μCi) of the incubation buffer (containing radiolabeled peptide [¹⁷⁷Lu]Lu-test peptide) for 1 hour at 37° C. (Table 10). Post incubation, the cells were pelleted and washed 2 times using cold PBS+1% BSA. The supernatant and washes were combined and counted together as “unbound fraction” in a gamma counter. The cells were then resuspended in 300 μL of 1% PBS+1% BSA and counted in the gamma counter as “bound fraction”.

For another assay, the target named is T3, DLL3 on CT26.DLL3 cells (Homo sapiens (Human), UniProt Q9NYJ7 27-618).
T3 construct: CT26.DLL3 are engineered cells to express DLL3
T3 sequence: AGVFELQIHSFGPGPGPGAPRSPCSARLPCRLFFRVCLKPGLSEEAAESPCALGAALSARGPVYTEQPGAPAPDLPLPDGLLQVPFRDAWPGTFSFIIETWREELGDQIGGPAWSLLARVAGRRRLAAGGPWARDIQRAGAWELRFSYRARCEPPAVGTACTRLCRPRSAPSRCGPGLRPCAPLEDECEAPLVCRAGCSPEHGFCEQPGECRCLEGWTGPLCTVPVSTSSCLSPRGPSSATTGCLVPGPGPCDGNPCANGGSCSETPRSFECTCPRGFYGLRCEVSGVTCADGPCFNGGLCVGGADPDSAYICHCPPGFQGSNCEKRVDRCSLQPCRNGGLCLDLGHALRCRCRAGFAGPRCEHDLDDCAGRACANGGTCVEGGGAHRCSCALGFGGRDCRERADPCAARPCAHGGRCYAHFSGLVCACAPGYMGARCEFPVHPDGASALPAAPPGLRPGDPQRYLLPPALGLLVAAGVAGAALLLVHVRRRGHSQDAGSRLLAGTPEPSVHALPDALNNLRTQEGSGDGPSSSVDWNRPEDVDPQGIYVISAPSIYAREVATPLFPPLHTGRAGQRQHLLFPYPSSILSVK
Kind of assay: [177Lu]Lu-labelled peptide on CT26.DLL3 cells, 1 h 37 C, gamma counter; A = %<=25. The protocol: as §1, §2

Assay [2] has as its target T2, DLL3 on SHP-77 cells. Briefly: [177Lu]Lu-labelled peptide on SHP-77 cells, 1 h 37 C, gamma counter; C = %>50.
Assay [3] concerns the target Recombinant human DLL3 aa27-215 protein (human) (UniProt Q9NYJ7). Briefly: ELISA: anti-DOTA antibody coated on the plate captures the DOTA-containing peptide (titrated 100 nM to 1.69 pM); 2 ug/mL DLL3 aa27-215 (His-tagged) added; detected with anti-His-HRP, OD450; EC50 fitted in GraphPad. (In an ELISA, binding on a coated surface is turned into a signal by an enzyme label.)

Molecule `CC[C@H](C)[C@H](NC(=O)[C@@H](NC(=O)[C@H](Cc1c[nH]c2ccccc12)NC(=O)[C@H](CCSC)NC(C)=O)[C@@H](C)O)C(=O)N[C@H]1CSSC[C@@H](C(=O)N[C@@H](Cc2c[nH]c3ccccc23)C(=O)N2CCC[C@H]2C(N)=O)NC(=O)[C@H](CC(=O)O)NC(=O)[C@H](Cc2cnc[nH]2)NC(=O)[C@H](Cc2c[nH]c3ccccc23)NC(=O)[C@H](CC(N)=O)NC(=O)[C@@H](C)NC1=O` [compound 82] (Ac-MWTIC[dA]NWHDCWP-NH2; disulfide 5-11) showed a Kd on DLL3 of 47 nM.

On DLL3, `CC[C@H](C)[C@H](NC(=O)[C@@H](NC(=O)[C@H](Cc1c[nH]c2ccccc12)NC(=O)[C@H](CCSC)NC(C)=O)[C@@H](C)O)C(=O)N[C@H]1CSSC[C@@H](C(=O)N[C@@H](Cc2c[nH]c3ccccc23)C(=O)N[C@H](C)C(N)=O)NC(=O)[C@H](CC(=O)O)NC(=O)[C@H](Cc2cnc[nH]2)NC(=O)[C@H](Cc2c[nH]c3ccccc23)NC(=O)[C@H](CC(N)=O)NC(=O)[C@H](CC(N)=O)NC1=O` [compound 85] (Ac-MWTICNNWHDCW[dA]-NH2; disulfide 5-11) yielded a Kd of 150 nM.

In turn, `CSCC[C@H](NC(C)=O)C(=O)N[C@@H](Cc1c[nH]c2ccccc12)C(=O)N[C@@H](CCSC)C(=O)N[C@@H](CC(C)C)C(=O)N[C@H]1CSSC[C@@H](C(=O)N[C@@H](Cc2c[nH]c3ccccc23)C(=O)N2CCC[C@H]2C(N)=O)NC(=O)[C@H](CC(=O)O)NC(=O)[C@H](CCCCN)NC(=O)[C@H](CC(=O)O)NC(=O)[C@H](Cc2c[nH]c3ccccc23)NC(=O)[C@H](CC(=O)O)NC1=O` [compound 77] (Ac-MWMLCDWDKDCWP-NH2; disulfide 5-11) showed a Kd on DLL3 of 150 nM.

B1: Cpd No. 322 (peptide)
peptide: Ac-WT[aIle]CNN[2Nal]K(DOTA)DCWP-NH2
modifications: disulfide 4-10
SMILES: CC[C@@H](C)[C@H](NC(=O)[C@@H](NC(=O)[C@H](Cc1c[nH]c2ccccc12)NC(C)=O)[C@@H](C)O)C(=O)N[C@H]1CSSC[C@@H](C(=O)N[C@@H](Cc2c[nH]c3ccccc23)C(=O)N2CCC[C@H]2C(N)=O)NC(=O)[C@H](CC(=O)O)NC(=O)[C@H](CCCCNC(=O)CN2CCN(CC(=O)O)CCN(CC(=O)O)CCN(CC(=O)O)CC2)NC(=O)[C@H](Cc2ccc3ccccc3c2)NC(=O)[C@H](CC(N)=O)NC(=O)[C@H](CC(N)=O)NC1=O
Consider B1, for which the “% Binding” value with DLL3 on SHP-77 cells [1] and with DLL3 on CT26.DLL3 cells was at most 25% each time.

Molecule Ac-WT[NMetBuAla]C[Ala(piperidin-4-yl)]N[2Nal]K(DOTA)DCW[αMeP]-NH2 (bridge 4-10; not fully specified (bridges)) [Cpd No. 236] came in with a % Binding with DLL3 on SHP-77 cells [2] above 50%. In addition, in assay [3], the EC50 was 0.341 nM.

B2: Cpd No. 323 (peptide)
peptide: Ac-WT[Cha]CNN[2Nal]K(DOTA)DCWP-NH2
modifications: disulfide 4-10
SMILES: CC(=O)N[C@@H](Cc1c[nH]c2ccccc12)C(=O)N[C@H](C(=O)N[C@@H](CC1CCCCC1)C(=O)N[C@H]1CSSC[C@@H](C(=O)N[C@@H](Cc2c[nH]c3ccccc23)C(=O)N2CCC[C@H]2C(N)=O)NC(=O)[C@H](CC(=O)O)NC(=O)[C@H](CCCCNC(=O)CN2CCN(CC(=O)O)CCN(CC(=O)O)CCN(CC(=O)O)CC2)NC(=O)[C@H](Cc2ccc3ccccc3c2)NC(=O)[C@H](CC(N)=O)NC(=O)[C@H](CC(N)=O)NC1=O)[C@@H](C)O
As for B2, the “% Binding” value with DLL3 on SHP-77 cells [1] and in the assay with DLL3 on CT26.DLL3 cells was at most 25% each time.
